Target: T1, EsCas13d, nuclease-dead (Eubacterium siraeum, UniProt B0MS50, R295A;H300A;R849A;H854A)
T1 sequence: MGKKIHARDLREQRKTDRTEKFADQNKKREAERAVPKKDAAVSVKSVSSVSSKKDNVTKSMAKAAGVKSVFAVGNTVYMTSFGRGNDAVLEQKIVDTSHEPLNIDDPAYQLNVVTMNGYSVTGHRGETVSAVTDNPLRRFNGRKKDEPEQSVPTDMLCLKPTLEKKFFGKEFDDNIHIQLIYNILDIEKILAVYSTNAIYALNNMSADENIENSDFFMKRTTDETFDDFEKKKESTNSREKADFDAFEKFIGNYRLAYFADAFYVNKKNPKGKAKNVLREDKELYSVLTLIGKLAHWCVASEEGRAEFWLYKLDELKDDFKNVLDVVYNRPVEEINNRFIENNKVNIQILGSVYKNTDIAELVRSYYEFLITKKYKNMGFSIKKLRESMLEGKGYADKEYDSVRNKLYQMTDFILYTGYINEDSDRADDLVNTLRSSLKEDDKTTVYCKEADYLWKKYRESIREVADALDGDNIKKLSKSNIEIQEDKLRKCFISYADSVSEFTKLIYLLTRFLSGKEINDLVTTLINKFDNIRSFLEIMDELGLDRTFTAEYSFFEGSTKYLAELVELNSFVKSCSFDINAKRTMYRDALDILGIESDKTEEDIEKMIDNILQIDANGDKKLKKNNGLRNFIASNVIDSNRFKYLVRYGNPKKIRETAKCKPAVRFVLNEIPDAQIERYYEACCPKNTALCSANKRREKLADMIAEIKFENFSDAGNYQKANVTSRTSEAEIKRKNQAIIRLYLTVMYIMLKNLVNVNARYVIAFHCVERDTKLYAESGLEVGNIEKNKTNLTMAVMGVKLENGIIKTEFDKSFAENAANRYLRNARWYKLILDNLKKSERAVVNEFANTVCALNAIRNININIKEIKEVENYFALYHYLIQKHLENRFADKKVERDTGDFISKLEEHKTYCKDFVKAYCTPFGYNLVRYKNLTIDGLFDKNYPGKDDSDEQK
Assay: crRNA (strand 1, pre-loaded); Mg2+; 40 mM Tris-HCl pH 7.5, 150 mM NaCl, 6 mM MgCl2, 1 mM DTT, 0.1% Tween-20, 0.2 mg/ml BSA; 25 C; 10 min per concentration, then washed
Conditions: tags: His6-TwinStrep-SUMO cleaved; N-terminal SNAP kept (SNAP-Surface 488); label: 3' end held by stalled T7 RNA polymerase

| Binder | Kd [nM] |
| --- | --- |
| target 1 G12U,A20U (mixed) RNA 1: CACCCGUGCAAAAAUGCAGGGGUCUAAAACUGAGCGGAUAACCUCUCUAUGG RNA 2: GGGAAUGGAUCCACAUCUACGAAUUCGUACCUUAGAGAGUUUAUCCGCUCACCGAGAUCGGAAGAGCACACGU | 27.5 ± 2.3 |
| target 1 C7U,A18C (mixed) RNA 1: CACCCGUGCAAAAAUGCAGGGGUCUAAAACUGAGCGGAUAACCUCUCUAUGG RNA 2: GGGAAUGGAUCCACAUCUACGAAUUCGUACCAUCGAGAGGUUAUUCGCUCACCGAGAUCGGAAGAGCACACGU | 55 ± 5 |
| target 1 G5A,C7A (mixed) RNA 1: CACCCGUGCAAAAAUGCAGGGGUCUAAAACUGAGCGGAUAACCUCUCUAUGG RNA 2: GGGAAUGGAUCCACAUCUACGAAUUCGUACCAUAGAGAGGUUAUACACUCACCGAGAUCGGAAGAGCACACGU | 10.3 ± 0.6 |
| target 1 A9C,G15A (mixed) RNA 1: CACCCGUGCAAAAAUGCAGGGGUCUAAAACUGAGCGGAUAACCUCUCUAUGG RNA 2: GGGAAUGGAUCCACAUCUACGAAUUCGUACCAUAGAAAGGUUCUCCGCUCACCGAGAUCGGAAGAGCACACGU | 35 ± 5 |
| target 2 MT 5'PFS AUU 3'PFS AUA (mixed) RNA 1: CACCCGUGCAAAAUUGCAGGGGUCUAAAACCUUCUCCAAAUUGUUUCAUCCU RNA 2: GGGAAUGGAUCCACAUCUACGAAUUCAUUAGGAUGAAACAAUUUGGAGAAGAUAAGAUCGGAAGAGCACACGU | 5.3 ± 0.4 |
| target 2 MT 5'PFS UAA 3'PFS CUU (mixed) RNA 1: CACCCGUGCAAAAUUGCAGGGGUCUAAAACCUUCUCCAAAUUGUUUCAUCCU RNA 2: GGGAAUGGAUCCACAUCUACGAAUUCUAAAGGAUGAAACAAUUUGGAGAAGCUUAGAUCGGAAGAGCACACGU | 6.9 ± 1.5 |
| target 2 MT 5'PFS AGC 3'PFS UUU (mixed) RNA 1: CACCCGUGCAAAAUUGCAGGGGUCUAAAACCUUCUCCAAAUUGUUUCAUCCU RNA 2: GGGAAUGGAUCCACAUCUACGAAUUCAGCAGGAUGAAACAAUUUGGAGAAGUUUAGAUCGGAAGAGCACACGU | 20 ± 4 |
| target 2 MT 5'PFS AGC 3'PFS UUG (mixed) RNA 1: CACCCGUGCAAAAUUGCAGGGGUCUAAAACCUUCUCCAAAUUGUUUCAUCCU RNA 2: GGGAAUGGAUCCACAUCUACGAAUUCAGCAGGAUGAAACAAUUUGGAGAAGUUGAGAUCGGAAGAGCACACGU | 10.6 ± 1.4 |
| target 2 MT 5'PFS AUA 3'PFS UCC (mixed) RNA 1: CACCCGUGCAAAAUUGCAGGGGUCUAAAACCUUCUCCAAAUUGUUUCAUCCU RNA 2: GGGAAUGGAUCCACAUCUACGAAUUCAUAAGGAUGAAACAAUUUGGAGAAGUCCAGAUCGGAAGAGCACACGU | 15.6 ± 2.1 |
| target 2 MT 5'PFS UAG 3'PFS CGG (mixed) RNA 1: CACCCGUGCAAAAUUGCAGGGGUCUAAAACCUUCUCCAAAUUGUUUCAUCCU RNA 2: GGGAAUGGAUCCACAUCUACGAAUUCUAGAGGAUGAAACAAUUUGGAGAAGCGGAGAUCGGAAGAGCACACGU | 2.89 ± 0.35 |
| target 2 MT 5'PFS GCA 3'PFS AGU (mixed) RNA 1: CACCCGUGCAAAAUUGCAGGGGUCUAAAACCUUCUCCAAAUUGUUUCAUCCU RNA 2: GGGAAUGGAUCCACAUCUACGAAUUCGCAAGGAUGAAACAAUUUGGAGAAGAGUAGAUCGGAAGAGCACACGU | 28 ± 10 |
| target 2 MT 5'PFS GAA 3'PFS UUC (mixed) RNA 1: CACCCGUGCAAAAUUGCAGGGGUCUAAAACCUUCUCCAAAUUGUUUCAUCCU RNA 2: GGGAAUGGAUCCACAUCUACGAAUUCGAAAGGAUGAAACAAUUUGGAGAAGUUCAGAUCGGAAGAGCACACGU | ~70 |
| target 2 MT 5'PFS AUA 3'PFS UCG (mixed) RNA 1: CACCCGUGCAAAAUUGCAGGGGUCUAAAACCUUCUCCAAAUUGUUUCAUCCU RNA 2: GGGAAUGGAUCCACAUCUACGAAUUCAUAAGGAUGAAACAAUUUGGAGAAGUCGAGAUCGGAAGAGCACACGU | 20 ± 6 |
| target 2 MT 5'PFS AGC 3'PFS UUA (mixed) RNA 1: CACCCGUGCAAAAUUGCAGGGGUCUAAAACCUUCUCCAAAUUGUUUCAUCCU RNA 2: GGGAAUGGAUCCACAUCUACGAAUUCAGCAGGAUGAAACAAUUUGGAGAAGUUAAGAUCGGAAGAGCACACGU | 10.9 ± 2.4 |
| target 2 MT 5'PFS UAA 3'PFS CUA (mixed) RNA 1: CACCCGUGCAAAAUUGCAGGGGUCUAAAACCUUCUCCAAAUUGUUUCAUCCU RNA 2: GGGAAUGGAUCCACAUCUACGAAUUCUAAAGGAUGAAACAAUUUGGAGAAGCUAAGAUCGGAAGAGCACACGU | 4.6 ± 0.5 |
| target 2 MT 5'PFS UUU 3'PFS AGA (mixed) RNA 1: CACCCGUGCAAAAUUGCAGGGGUCUAAAACCUUCUCCAAAUUGUUUCAUCCU RNA 2: GGGAAUGGAUCCACAUCUACGAAUUCUUUAGGAUGAAACAAUUUGGAGAAGAGAAGAUCGGAAGAGCACACGU | 7.3 ± 0.8 |
| target 2 MT 5'PFS CGG 3'PFS ACU (mixed) RNA 1: CACCCGUGCAAAAUUGCAGGGGUCUAAAACCUUCUCCAAAUUGUUUCAUCCU RNA 2: GGGAAUGGAUCCACAUCUACGAAUUCCGGAGGAUGAAACAAUUUGGAGAAGACUAGAUCGGAAGAGCACACGU | 6.8 ± 1.1 |
| target 2 MT 5'PFS GCU 3'PFS ACA (mixed) RNA 1: CACCCGUGCAAAAUUGCAGGGGUCUAAAACCUUCUCCAAAUUGUUUCAUCCU RNA 2: GGGAAUGGAUCCACAUCUACGAAUUCGCUAGGAUGAAACAAUUUGGAGAAGACAAGAUCGGAAGAGCACACGU | 15 ± 4 |
| target 2 MT 5'PFS GUC 3'PFS AUU (mixed) RNA 1: CACCCGUGCAAAAUUGCAGGGGUCUAAAACCUUCUCCAAAUUGUUUCAUCCU RNA 2: GGGAAUGGAUCCACAUCUACGAAUUCGUCAGGAUGAAACAAUUUGGAGAAGAUUAGAUCGGAAGAGCACACGU | 11.2 ± 1.3 |
| target 2 MT 5'PFS GCU 3'PFS ACC (mixed) RNA 1: CACCCGUGCAAAAUUGCAGGGGUCUAAAACCUUCUCCAAAUUGUUUCAUCCU RNA 2: GGGAAUGGAUCCACAUCUACGAAUUCGCUAGGAUGAAACAAUUUGGAGAAGACCAGAUCGGAAGAGCACACGU | ~30 |
| target 2 MT 5'PFS CGG 3'PFS ACC (mixed) RNA 1: CACCCGUGCAAAAUUGCAGGGGUCUAAAACCUUCUCCAAAUUGUUUCAUCCU RNA 2: GGGAAUGGAUCCACAUCUACGAAUUCCGGAGGAUGAAACAAUUUGGAGAAGACCAGAUCGGAAGAGCACACGU | 12 ± 1.9 |
| target 2 MT 5'PFS UAG 3'PFS CGA (mixed) RNA 1: CACCCGUGCAAAAUUGCAGGGGUCUAAAACCUUCUCCAAAUUGUUUCAUCCU RNA 2: GGGAAUGGAUCCACAUCUACGAAUUCUAGAGGAUGAAACAAUUUGGAGAAGCGAAGAUCGGAAGAGCACACGU | 2.55 ± 0.33 |
| target 2 MT 5'PFS AUA 3'PFS UCU (mixed) RNA 1: CACCCGUGCAAAAUUGCAGGGGUCUAAAACCUUCUCCAAAUUGUUUCAUCCU RNA 2: GGGAAUGGAUCCACAUCUACGAAUUCAUAAGGAUGAAACAAUUUGGAGAAGUCUAGAUCGGAAGAGCACACGU | 33 ± 15 |
| target 2 MT 5'PFS UAA 3'PFS CUC (mixed) RNA 1: CACCCGUGCAAAAUUGCAGGGGUCUAAAACCUUCUCCAAAUUGUUUCAUCCU RNA 2: GGGAAUGGAUCCACAUCUACGAAUUCUAAAGGAUGAAACAAUUUGGAGAAGCUCAGAUCGGAAGAGCACACGU | 6.7 ± 0.9 |
| target 2 MT 5'PFS UAA 3'PFS CUG (mixed) RNA 1: CACCCGUGCAAAAUUGCAGGGGUCUAAAACCUUCUCCAAAUUGUUUCAUCCU RNA 2: GGGAAUGGAUCCACAUCUACGAAUUCUAAAGGAUGAAACAAUUUGGAGAAGCUGAGAUCGGAAGAGCACACGU | 6.2 ± 1.1 |
| target 2 MT 5'PFS AUA 3'PFS UCA (mixed) RNA 1: CACCCGUGCAAAAUUGCAGGGGUCUAAAACCUUCUCCAAAUUGUUUCAUCCU RNA 2: GGGAAUGGAUCCACAUCUACGAAUUCAUAAGGAUGAAACAAUUUGGAGAAGUCAAGAUCGGAAGAGCACACGU | 12.3 ± 2.6 |
| target 2 MT 5'PFS CGG 3'PFS ACG (mixed) RNA 1: CACCCGUGCAAAAUUGCAGGGGUCUAAAACCUUCUCCAAAUUGUUUCAUCCU RNA 2: GGGAAUGGAUCCACAUCUACGAAUUCCGGAGGAUGAAACAAUUUGGAGAAGACGAGAUCGGAAGAGCACACGU | 4.05 ± 0.24 |
| target 2 MT 5'PFS GCU 3'PFS ACU (mixed) RNA 1: CACCCGUGCAAAAUUGCAGGGGUCUAAAACCUUCUCCAAAUUGUUUCAUCCU RNA 2: GGGAAUGGAUCCACAUCUACGAAUUCGCUAGGAUGAAACAAUUUGGAGAAGACUAGAUCGGAAGAGCACACGU | 23 ± 4 |
